For 5 substances, response and Kd results are on record in publication PMC3569449.

In assay [1] the target is Human V-ATPase subunit C1 (human) (UniProt P21283). Briefly: SPR; C1 immobilised on CM5; response at 10 µM analyte (E1G1, a1NT, or both together). A general note: In SPR one partner is held on a chip, and binding of the other changes the refractive index at the surface.
Assay [2] addresses Human V-ATPase subunit H (non-tagged) (human) (UniProt Q9UI12). Put plainly: SPR; Biacore T100; C1, H or a1NT amine-coupled to CM5; 20 mM HEPES-NaOH, 300 mM NaCl, 1 mM DTT, 0.05% P20, pH 7.5, 10°C; KD from steady-state Req against analyte concentration, 1:1 Langmuir isotherm.
For assay [3], the target named is Human V-ATPase subunit C1 (human) (UniProt P21283). The description is as above.
Assay [4] concerns the target V-ATPase a NT (Saccharomyces cerevisiae) (UniProt P32563). Put plainly: ITC. The conditions noted are these: cited from earlier work.
Assay [5] addresses N-terminal cytoplasmic domain of the a1 isoform of subunit a of human V-ATPase (residues 1-353) (human) (UniProt Q93050). Put plainly: SPR; Biacore T100; C1, H or a1NT amine-coupled to CM5; 20 mM HEPES-NaOH, 300 mM NaCl, 1 mM DTT, 0.05% P20, pH 7.5, 10°C; KD from steady-state Req against analyte concentration, 1:1 Langmuir isotherm.

Sequence of Human V-ATPase subunit C1 (human) (P21283 whole entry): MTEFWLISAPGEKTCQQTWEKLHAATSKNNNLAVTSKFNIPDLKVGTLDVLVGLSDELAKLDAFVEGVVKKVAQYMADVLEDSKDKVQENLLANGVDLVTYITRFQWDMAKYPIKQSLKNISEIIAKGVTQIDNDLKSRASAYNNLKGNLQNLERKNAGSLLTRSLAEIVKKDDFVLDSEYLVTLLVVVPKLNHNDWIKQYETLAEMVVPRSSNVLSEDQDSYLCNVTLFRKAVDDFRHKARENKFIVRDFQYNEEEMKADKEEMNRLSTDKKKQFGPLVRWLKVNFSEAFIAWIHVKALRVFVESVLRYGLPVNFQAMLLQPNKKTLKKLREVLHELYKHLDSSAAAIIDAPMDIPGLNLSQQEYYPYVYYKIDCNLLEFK
Sequence of V-ATPase a NT (Saccharomyces cerevisiae) (P32563 104-372): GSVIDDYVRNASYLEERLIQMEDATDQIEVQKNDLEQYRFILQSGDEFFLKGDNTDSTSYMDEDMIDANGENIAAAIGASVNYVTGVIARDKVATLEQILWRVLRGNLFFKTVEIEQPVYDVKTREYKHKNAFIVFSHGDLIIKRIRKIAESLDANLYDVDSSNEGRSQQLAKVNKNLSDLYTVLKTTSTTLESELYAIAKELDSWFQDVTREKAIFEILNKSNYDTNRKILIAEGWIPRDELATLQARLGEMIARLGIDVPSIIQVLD
Sequence of Human V-ATPase subunit H (non-tagged) (human) (Q9UI12 whole entry): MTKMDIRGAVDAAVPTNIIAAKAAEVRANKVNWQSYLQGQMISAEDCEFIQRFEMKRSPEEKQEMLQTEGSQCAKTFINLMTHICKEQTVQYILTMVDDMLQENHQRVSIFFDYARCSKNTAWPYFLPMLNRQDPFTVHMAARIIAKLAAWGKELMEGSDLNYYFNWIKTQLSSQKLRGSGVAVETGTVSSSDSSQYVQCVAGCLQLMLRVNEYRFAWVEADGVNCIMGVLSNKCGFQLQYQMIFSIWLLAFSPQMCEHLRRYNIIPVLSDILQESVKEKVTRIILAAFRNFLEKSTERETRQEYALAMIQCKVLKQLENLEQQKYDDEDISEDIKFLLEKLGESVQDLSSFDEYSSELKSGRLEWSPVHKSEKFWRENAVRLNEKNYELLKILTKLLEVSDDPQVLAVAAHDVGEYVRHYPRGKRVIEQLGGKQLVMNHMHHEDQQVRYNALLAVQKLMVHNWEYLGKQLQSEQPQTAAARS
Sequence of N-terminal cytoplasmic domain of the a1 isoform of subunit a of human V-ATPase (residues 1-353) (human) (Q93050 1-353): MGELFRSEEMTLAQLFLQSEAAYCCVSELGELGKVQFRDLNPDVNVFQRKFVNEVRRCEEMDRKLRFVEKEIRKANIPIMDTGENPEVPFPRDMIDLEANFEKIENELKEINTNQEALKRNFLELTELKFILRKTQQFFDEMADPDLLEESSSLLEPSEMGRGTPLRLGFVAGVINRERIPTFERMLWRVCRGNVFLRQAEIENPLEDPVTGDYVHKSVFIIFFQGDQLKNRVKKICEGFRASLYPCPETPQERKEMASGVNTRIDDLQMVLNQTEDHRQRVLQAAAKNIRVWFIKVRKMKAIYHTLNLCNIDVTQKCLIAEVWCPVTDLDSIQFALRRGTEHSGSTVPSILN
Sequence of V-ATPase EG (P22203 2-233): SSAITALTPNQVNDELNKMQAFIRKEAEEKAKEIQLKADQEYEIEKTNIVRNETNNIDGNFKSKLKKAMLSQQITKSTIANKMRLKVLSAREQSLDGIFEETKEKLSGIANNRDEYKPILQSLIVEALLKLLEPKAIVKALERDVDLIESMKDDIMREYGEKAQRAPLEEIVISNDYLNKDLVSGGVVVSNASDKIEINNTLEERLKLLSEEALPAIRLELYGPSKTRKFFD
Sequence of V-ATPase EG (P48836 2-114, further chain): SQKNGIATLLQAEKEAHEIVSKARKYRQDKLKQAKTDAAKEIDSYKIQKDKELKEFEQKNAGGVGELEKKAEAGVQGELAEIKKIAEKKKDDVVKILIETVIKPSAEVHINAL
Sequence of V-ATPase C foot (P31412 2-157): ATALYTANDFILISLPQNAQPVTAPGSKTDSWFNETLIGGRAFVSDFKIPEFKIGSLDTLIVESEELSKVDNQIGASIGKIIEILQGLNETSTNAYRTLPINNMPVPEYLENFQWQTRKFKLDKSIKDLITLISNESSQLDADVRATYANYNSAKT
Sequence of V-ATPase C foot (P31412 278-392): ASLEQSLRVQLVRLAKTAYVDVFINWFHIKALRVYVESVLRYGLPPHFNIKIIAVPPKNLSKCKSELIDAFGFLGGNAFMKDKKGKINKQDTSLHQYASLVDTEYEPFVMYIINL

The term Kd denotes the concentration at which binding is half-saturated. In assay [1], “N-terminal cytoplasmic domain of the a1 isoform of subunit a of human V-ATPase (residues 1-353) (from UniProt Q93050 1-353) (domain or fragment)” registered a response at 10 µM analyte of 45 RU. Besides, the dissociation constant Kd in assay [2] worked out at 0.36 µM; in assay [3], 3 µM.
With V-ATPase EG (from UniProt P22203), the Kd in assay [4] was 33 µM.
“E1G1 heterodimer of human V-ATPase (subunits E1 and G1, co-expressed and co-purified) (from UniProt P36543 1-226; O75348 1-118) (complex)”: the Kd in assay [5] was found to be 0.21 µM.
Regarding V-ATPase C foot (from UniProt P31412), in assay [4], the Kd was 22 µM.
In turn, “Human V-ATPase subunit C1 (from UniProt P21283 1-382) (natural protein)” displayed a Kd in assay [2] of 1.4 µM.
